# Source: PMC4486954, “Highly homologous proteins exert opposite biological activities by using different interaction interfaces” (Scientific Reports, 2015)
# No end group written: not given here.
# T1: iASPP Ank-SH3 (Homo sapiens, UniProt Q8WUF5)
# T1 construct: (2) iASPP Ank-SH3 603-828; HLT tag (His tag + lipoyl domain + TEV site) (N, cleaved yes); made in house; host or cells: E. coli HMS 174 (Novagen)
# T1 sequence (Q8WUF5 603-828): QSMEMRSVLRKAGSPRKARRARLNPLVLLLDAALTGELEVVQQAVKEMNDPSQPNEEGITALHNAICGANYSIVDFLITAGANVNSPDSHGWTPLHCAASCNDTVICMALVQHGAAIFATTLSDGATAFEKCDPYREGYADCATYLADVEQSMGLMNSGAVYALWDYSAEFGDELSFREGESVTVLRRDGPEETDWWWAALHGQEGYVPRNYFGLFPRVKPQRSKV
# T2: iASPP Ank-SH3 (human, UniProt Q8WUF5 603-828)
# T2 construct: iASPP (human), four ankyrin repeats and SH3 domain, residues 603-828, Swiss-Prot Q8WUF5; also called iASPP Ank-SH3 603-828; cleaved iASPP Ank-SH3; source: E. coli HMS 174, purified (Nickel Sepharose, TEV cleavage, second Nickel column, size exclusion chromatography); not shown: HLT (His tag, lipoyl domain, TEV protease cleavage site), N-terminal, cleaved
# T2 sequence (looked up): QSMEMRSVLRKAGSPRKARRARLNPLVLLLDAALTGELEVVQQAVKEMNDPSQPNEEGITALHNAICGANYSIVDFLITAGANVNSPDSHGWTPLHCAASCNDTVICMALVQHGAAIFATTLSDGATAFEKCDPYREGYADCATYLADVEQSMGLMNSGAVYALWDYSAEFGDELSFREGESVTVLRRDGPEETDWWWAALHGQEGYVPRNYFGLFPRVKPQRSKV
# T3: HLT-iASPP Pro (human, UniProt Q8WUF5 1-602)
# T3 construct: iASPP (human), proline rich (Pro) domain, residues 1-602 of the 828-residue protein, Swiss-Prot Q8WUF5; Cloned EcoRI/NotI into pHis parallel 2HLT; calculated Mw with tag 75.9 kDa; also called iASPP Pro 1-602; iASPP 1-602; source: E. coli Rosetta2, purified (Nickel Sepharose, size exclusion chromatography); not shown: HLT (His tag, lipoyl domain, TEV protease cleavage site), N-terminal, kept
# T3 sequence (looked up): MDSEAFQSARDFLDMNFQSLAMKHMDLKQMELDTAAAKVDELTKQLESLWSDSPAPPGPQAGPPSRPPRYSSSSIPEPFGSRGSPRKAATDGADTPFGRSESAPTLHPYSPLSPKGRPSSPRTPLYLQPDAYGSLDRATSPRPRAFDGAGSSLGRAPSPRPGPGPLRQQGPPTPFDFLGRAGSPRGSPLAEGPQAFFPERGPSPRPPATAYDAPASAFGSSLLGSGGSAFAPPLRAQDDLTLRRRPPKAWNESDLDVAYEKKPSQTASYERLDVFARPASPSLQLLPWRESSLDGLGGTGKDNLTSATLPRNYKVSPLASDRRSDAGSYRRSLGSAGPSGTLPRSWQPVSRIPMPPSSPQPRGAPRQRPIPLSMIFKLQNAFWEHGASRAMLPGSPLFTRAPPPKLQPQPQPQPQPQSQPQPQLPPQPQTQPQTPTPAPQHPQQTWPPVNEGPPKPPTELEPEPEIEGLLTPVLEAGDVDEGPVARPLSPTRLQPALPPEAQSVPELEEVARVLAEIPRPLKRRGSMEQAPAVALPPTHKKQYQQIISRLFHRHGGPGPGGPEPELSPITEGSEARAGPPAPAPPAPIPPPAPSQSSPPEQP
# B1: iASPP 1-240: iASPP fragment 1-240 of a previous pull down assay (protein, UniProt Q8WUF5 1-240, looked up, fragment)
# chain: MDSEAFQSARDFLDMNFQSLAMKHMDLKQMELDTAAAKVDELTKQLESLWSDSPAPPGPQAGPPSRPPRYSSSSIPEPFGSRGSPRKAATDGADTPFGRSESAPTLHPYSPLSPKGRPSSPRTPLYLQPDAYGSLDRATSPRPRAFDGAGSSLGRAPSPRPGPGPLRQQGPPTPFDFLGRAGSPRGSPLAEGPQAFFPERGPSPRPPATAYDAPASAFGSSLLGSGGSAFAPPLRAQDDL
# B2: iASPP Ank-SH3 array peptide 739-753 (spot E16) (peptide)
# peptide: Ac-EGYADCATYLADVEQ-{cellulose membrane (amide bond)}
# modifications: also: C-terminus bound to cellulose membrane via amide
# notes: source: synthetic peptide on CelluSpots array (INTAVIS)
# B3: iASPP 249-482: iASPP fragment 249-482 of a previous pull down assay (protein, UniProt Q8WUF5 249-482, looked up, fragment)
# chain: AWNESDLDVAYEKKPSQTASYERLDVFARPASPSLQLLPWRESSLDGLGGTGKDNLTSATLPRNYKVSPLASDRRSDAGSYRRSLGSAGPSGTLPRSWQPVSRIPMPPSSPQPRGAPRQRPIPLSMIFKLQNAFWEHGASRAMLPGSPLFTRAPPPKLQPQPQPQPQPQSQPQPQLPPQPQTQPQTPTPAPQHPQQTWPPVNEGPPKPPTELEPEPEIEGLLTPVLEAGDVDEG
# B4: iASPP Ank-SH3 array peptide 800-814 (spot E23) (peptide)
# peptide: Ac-WAALHGQEGYVPRNY-{cellulose membrane (amide bond)}
# modifications: also: C-terminus bound to cellulose membrane via amide
# notes: iASPP (human) residues 800-814; also called iASPP 800-814; source: synthetic peptide on CelluSpots array (INTAVIS)
# B5: iASPP 1-478: iASPP fragment 1-478 of a previous pull down assay (protein, UniProt Q8WUF5 1-478, looked up, fragment)
# chain: MDSEAFQSARDFLDMNFQSLAMKHMDLKQMELDTAAAKVDELTKQLESLWSDSPAPPGPQAGPPSRPPRYSSSSIPEPFGSRGSPRKAATDGADTPFGRSESAPTLHPYSPLSPKGRPSSPRTPLYLQPDAYGSLDRATSPRPRAFDGAGSSLGRAPSPRPGPGPLRQQGPPTPFDFLGRAGSPRGSPLAEGPQAFFPERGPSPRPPATAYDAPASAFGSSLLGSGGSAFAPPLRAQDDLTLRRRPPKAWNESDLDVAYEKKPSQTASYERLDVFARPASPSLQLLPWRESSLDGLGGTGKDNLTSATLPRNYKVSPLASDRRSDAGSYRRSLGSAGPSGTLPRSWQPVSRIPMPPSSPQPRGAPRQRPIPLSMIFKLQNAFWEHGASRAMLPGSPLFTRAPPPKLQPQPQPQPQPQSQPQPQLPPQPQTQPQTPTPAPQHPQQTWPPVNEGPPKPPTELEPEPEIEGLLTPVLEAGD
# B6: iASPP Ank-SH3 array peptide 764-778 (spot E19) (peptide)
# peptide: Ac-YALWDYSAEFGDELS-{cellulose membrane (amide bond)}
# modifications: also: C-terminus bound to cellulose membrane via amide
# notes: as for B2
# Tests used:
# HLT-iASPP Ank-SH3 = assay: Peptide array screening: HLT-iASPP Ank-SH3 binding to array of iASPP Pro derived peptides; set-up: species or system human; details: CelluSpots array, N-acetylated 15-residue peptides on cellulose; 5 μM protein, 4 °C overnight; IS = 150 mM, pH 7.0; anti His HRP, chemiluminescence
# Experimental: (§1) The CelluSpots^TM peptide micro-arrays were synthesized by INTAVIS Bioanalytical Instruments AG, Köln, Germany. The 15 residue peptides were acetylated at their N-termini and attached to a cellulose membrane via their C termini through an amide bond. For screening the binding of the array to HLT-iASPP Ank-SH3 the array was first washed for 4 h at room temperature with 50 mM Tris-HCl pH = 8 at an ionic strength (IS) of 150 mM adjusted by NaCl, 0.05% Tween20 and 2.5% (W/V) skimmed milk (buffer D) for blocking unspecific binding. HLT-iASPP Ank-SH3 was dissolved in 20 mM Phosphate buffer pH = 7.0 IS = 150 mM, 5 mM βME, 10% glycerol and 0.02% NaN3 and 2.5% skimmed milk. 5 ml of 5 μM of the protein were incubated with the arrays at 4 °C with shaking overnight. After three washes with TBST, the array was incubated with anti His HRP conjugated antibody at room temperature for 1 hour. The antibody was dissolved in buffer D. Then the array was washed again three times with TBST. Immunodetection was performed using chemiluminiscence (ECL reagents). Peptide array screening for binding HLT-iASPP Pro was also preformed as above with change of the proteins buffer. HLT-iASPP Pro was dissolved in 50 mM Phosphate buffer pH = 7.0, 10% glycerol, 0.02% NaN3, 0.001% Tween 20, IS = 150 mM and 2.5% skimmed milk.
# HLT-iASPP Pro [1] = assay: Peptide array screening: HLT-iASPP Pro binding to array of iASPP Ank-SH3 derived peptides; set-up: species or system human; details: CelluSpots array, N-acetylated 15-residue peptides on cellulose; 50 mM Phosphate pH 7.0, IS = 150 mM; anti His HRP, chemiluminescence
# Experimental: as §1
# [2] = target: iASPP 616-623 peptide 616-623 (Homo sapiens) (UniProt Q8WUF5); assay: ITC; details: cited from earlier work
# iASPP Ank-SH3 [3] = target: T1, iASPP Ank-SH3; assay: Fluorescence anisotropy binding of fluorescein-labeled iASPP Pro derived peptides to iASPP Ank-SH3; details: 250 μM iASPP Ank-SH3 titrated into 100 nM fluorescein-labeled peptide, 10 °C, 20 mM Hepes pH 7.3, ionic strength 50 mM
# Experimental: Binding of the iASPP Pro-derived peptides to iASPP Ank-SH3 was measured by fluorescence anisotropy using a PerkinElmer Life Sciences LS-50b spectrofluorimeter equipped with a Hamilton microlab M dispenser. Titration of iASPP Ank-SH3 into iASPP Pro derived fluorescein-labeled (FL) peptides was performed at 10 °C in 20 mM Hepes buffer, pH 7.3, 43 mM NaCl (total ionic strength = 50 mM), 10% glycerol and 5 mM β-mercaptoethanol. The excitation wavelength was set at 480 nm and the emission measured at 530 nm. The labeled peptide, dissolved in 1 ml buffer to a final concentration of 100 nM, was placed in the cuvette. 250 μM iASPP Ank-SH3 was placed in the dispenser and aliquots of 10–20 μl were added at 1.5 min intervals. The solution was then stirred for 30 sec, and the fluorescence and anisotropy were measured. Data were analyzed using the program Origin8 (OriginLab) and were fit to 1:1 binding model:
# [drawing 1] (R- measured fluorescence anisotropy, R0- anisotropy value corresponding to the free peptide, ∆R- amplitude of the fluorescence anisotropy change, [Protein]- protein concentration, Kd- dissociation constant).
# iASPP Ank-SH3 [4] = target: T2, iASPP Ank-SH3; assay: fluorescence polarisation; fluorescence anisotropy; 250 uM iASPP Ank-SH3 titrated into 100 nM fluorescein-labeled peptide; 10 °C; 20 mM Hepes pH 7.3, 43 mM NaCl (ionic strength 50 mM), 10% glycerol, 5 mM β-mercaptoethanol; fit to a 1:1 model; details: both partners purified
# iASPP Ank-SH3 [5] = target: T1, iASPP Ank-SH3; details: cited from earlier work
# From the text: iASPP 1-478 and specifically iASPP 1-240 but not iASPP 249-482 were previously shown to bind iASPP Ank-SH3 in a pull down assay. We further mapped this interaction using peptide arrays and identified the exact regions in iASPP Pro that bind iASPP Ank-SH3.
# HLT-iASPP Pro [6] = target: T3, HLT-iASPP Pro; assay: peptide or protein array; CelluSpots array of 24 partly overlapping 15-residue iASPP Ank-SH3 peptides on cellulose; HLT-iASPP Pro in 50 mM phosphate pH 7.0, 10% glycerol, 0.001% Tween 20, ionic strength 150 mM, 2.5% skimmed milk; detected with anti His HRP antibody; details: both partners purified
molecule,measurement,setting,value
"SMEMRSVLRKAGSPR [iASPP 604-618, array peptide, iASPP residues 604-618]",binding of HLT-iASPP Ank-SH3 to the peptide in the array,HLT-iASPP Ank-SH3,bound
"YALWDYSAEFGDELS [iASPP 764-778, array peptide, iASPP Ank-SH3 residues 764-778, RT loop]",binding of HLT-iASPP Pro to the peptide in the array,HLT-iASPP Pro [1],bound
"EGYADCATYLADVEQ [iASPP 739-753, array peptide, iASPP Ank-SH3 residues 739-753, fourth ankyrin repeat]",binding of HLT-iASPP Pro to the peptide in the array,HLT-iASPP Pro [1],bound
iASPP Ank-SH3 (from UniProt Q8WUF5),Kd,[2],45 µM
"WAALHGQEGYVPRNY [iASPP 800-814, array peptide, iASPP Ank-SH3 residues 800-814]",binding of HLT-iASPP Pro to the peptide in the array,HLT-iASPP Pro [1],bound
"iASPP 83-90: iASPP Pro derived peptide that includes the iASPP phosphorylation site S84 (GSPRKAAT; UniProt Q8WUF5 83-90, looked up, fragment)",binding to iASPP Ank-SH3 (in words),iASPP Ank-SH3 [3],did not bind
same,binding of HLT-iASPP Ank-SH3 to the peptide in the array,HLT-iASPP Ank-SH3,did not bind
{5(6)‑carboxyfluorescein}-QAGPPSRPPRYSSSS [fluorescein labeled iASPP 60-74],Kd,iASPP Ank-SH3 [4],35 ± 2 µM
B1,binding to iASPP Ank-SH3 in pull down assay,iASPP Ank-SH3 [5],bind
B2,binding result,HLT-iASPP Pro [6],binds
B3,binding to iASPP Ank-SH3 in pull down assay,iASPP Ank-SH3 [5],not
{5(6)‑carboxyfluorescein}-KKQYQQIISRLFHRHGGPGPGGP [fluorescein labeled iASPP 540-562],Kd,iASPP Ank-SH3 [4],34 ± 2 µM
B4,binding result,HLT-iASPP Pro [6],binds
B5,binding to iASPP Ank-SH3 in pull down assay,iASPP Ank-SH3 [5],bind
B6,binding result,HLT-iASPP Pro [6],binds
